Test results: US20240392271, “ENGINEERED CASX REPRESSOR SYSTEMS” (Scribe Therapeutics Inc., published 2024)

Assays:
ELXR4-ZNF10 (#4.B) = target: T1, ELXR4-ZNF10 (#4.B) (synthetic construct); test: cell_activity; PAM TTC; day 73; conditions: tags: DNMT3A CD, DNMT3L ID, ZNF10 KRAB fusion, NLS
T1 chain: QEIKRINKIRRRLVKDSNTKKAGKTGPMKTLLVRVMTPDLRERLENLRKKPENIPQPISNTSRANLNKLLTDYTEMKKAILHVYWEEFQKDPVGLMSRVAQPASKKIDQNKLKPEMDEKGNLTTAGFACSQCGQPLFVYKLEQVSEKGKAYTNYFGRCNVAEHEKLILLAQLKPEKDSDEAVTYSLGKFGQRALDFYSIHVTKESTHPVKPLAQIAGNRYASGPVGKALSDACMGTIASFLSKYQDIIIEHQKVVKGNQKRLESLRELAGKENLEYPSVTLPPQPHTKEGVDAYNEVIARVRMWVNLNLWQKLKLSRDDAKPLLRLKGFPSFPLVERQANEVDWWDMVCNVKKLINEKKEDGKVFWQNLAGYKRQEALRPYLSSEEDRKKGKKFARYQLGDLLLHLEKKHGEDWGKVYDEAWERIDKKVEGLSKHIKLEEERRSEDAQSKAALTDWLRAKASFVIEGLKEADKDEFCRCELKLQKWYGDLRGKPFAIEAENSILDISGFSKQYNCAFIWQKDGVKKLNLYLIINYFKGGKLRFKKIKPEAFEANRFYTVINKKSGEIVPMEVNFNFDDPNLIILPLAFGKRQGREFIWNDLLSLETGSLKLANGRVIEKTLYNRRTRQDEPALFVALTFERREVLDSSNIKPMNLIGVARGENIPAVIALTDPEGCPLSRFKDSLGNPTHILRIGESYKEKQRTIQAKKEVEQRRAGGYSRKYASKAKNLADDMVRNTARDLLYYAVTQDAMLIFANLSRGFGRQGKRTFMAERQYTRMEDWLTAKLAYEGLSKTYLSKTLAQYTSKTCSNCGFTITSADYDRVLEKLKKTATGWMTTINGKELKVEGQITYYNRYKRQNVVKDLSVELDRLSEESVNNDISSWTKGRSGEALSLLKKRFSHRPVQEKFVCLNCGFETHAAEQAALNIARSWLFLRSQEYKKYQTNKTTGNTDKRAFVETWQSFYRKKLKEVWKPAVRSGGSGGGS

ELXR5-ZNF10 (#5.B) = ELXR5-ZNF10 (#5.B) (synthetic construct); test: cell_activity; PAM TTC; day 73; conditions: tags: DNMT3A CD, DNMT3L ID, ZNF10 KRAB fusion, NLS
ELXR5-ZIM3 (#5.A) = ELXR5-ZIM3 (#5.A) (synthetic construct); test: cell_activity; PAM TTC; day 73; conditions: tags: DNMT3A CD, DNMT3L ID, ZIM3 KRAB fusion, NLS
ELXR4-ZIM3 (#4.A) = target: T2, ELXR4-ZIM3 (#4.A) (synthetic construct); test: cell_activity; PAM TTC; day 73; conditions: tags: DNMT3A CD, DNMT3L ID, ZIM3 KRAB fusion, NLS
T2 chain: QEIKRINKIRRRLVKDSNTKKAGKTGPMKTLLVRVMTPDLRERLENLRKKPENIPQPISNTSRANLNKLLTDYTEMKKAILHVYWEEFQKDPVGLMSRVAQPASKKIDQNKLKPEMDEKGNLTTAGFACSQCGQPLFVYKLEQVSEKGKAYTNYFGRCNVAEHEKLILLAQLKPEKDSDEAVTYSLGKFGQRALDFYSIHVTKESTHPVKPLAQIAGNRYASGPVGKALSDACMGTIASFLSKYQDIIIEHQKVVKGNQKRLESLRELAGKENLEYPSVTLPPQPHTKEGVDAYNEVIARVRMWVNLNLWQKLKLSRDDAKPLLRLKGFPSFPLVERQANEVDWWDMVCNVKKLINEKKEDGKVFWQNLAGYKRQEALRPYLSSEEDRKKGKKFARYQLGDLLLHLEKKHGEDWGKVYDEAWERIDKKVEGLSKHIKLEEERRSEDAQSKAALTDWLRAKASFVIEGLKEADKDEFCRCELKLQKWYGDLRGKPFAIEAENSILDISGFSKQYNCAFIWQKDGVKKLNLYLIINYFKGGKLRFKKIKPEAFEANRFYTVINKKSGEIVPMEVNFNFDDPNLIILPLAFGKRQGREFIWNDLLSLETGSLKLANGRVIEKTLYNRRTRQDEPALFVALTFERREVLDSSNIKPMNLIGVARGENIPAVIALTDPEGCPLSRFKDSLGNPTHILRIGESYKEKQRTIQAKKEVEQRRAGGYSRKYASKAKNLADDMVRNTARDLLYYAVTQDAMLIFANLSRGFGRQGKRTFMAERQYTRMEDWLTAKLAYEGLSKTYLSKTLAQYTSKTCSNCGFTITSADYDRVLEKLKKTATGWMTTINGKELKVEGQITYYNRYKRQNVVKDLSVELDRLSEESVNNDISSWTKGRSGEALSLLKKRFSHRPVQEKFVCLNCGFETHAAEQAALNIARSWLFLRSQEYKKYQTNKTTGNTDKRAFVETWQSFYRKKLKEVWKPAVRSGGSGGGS

ELXR2-ZNF10 (#2.B) = target: T3, ELXR2-ZNF10 (#2.B) (synthetic construct); test: cell_activity; PAM TTC; day 50; conditions: tags: DNMT3A CD, DNMT3L ID, ZNF10 KRAB fusion, NLS
T3 chain: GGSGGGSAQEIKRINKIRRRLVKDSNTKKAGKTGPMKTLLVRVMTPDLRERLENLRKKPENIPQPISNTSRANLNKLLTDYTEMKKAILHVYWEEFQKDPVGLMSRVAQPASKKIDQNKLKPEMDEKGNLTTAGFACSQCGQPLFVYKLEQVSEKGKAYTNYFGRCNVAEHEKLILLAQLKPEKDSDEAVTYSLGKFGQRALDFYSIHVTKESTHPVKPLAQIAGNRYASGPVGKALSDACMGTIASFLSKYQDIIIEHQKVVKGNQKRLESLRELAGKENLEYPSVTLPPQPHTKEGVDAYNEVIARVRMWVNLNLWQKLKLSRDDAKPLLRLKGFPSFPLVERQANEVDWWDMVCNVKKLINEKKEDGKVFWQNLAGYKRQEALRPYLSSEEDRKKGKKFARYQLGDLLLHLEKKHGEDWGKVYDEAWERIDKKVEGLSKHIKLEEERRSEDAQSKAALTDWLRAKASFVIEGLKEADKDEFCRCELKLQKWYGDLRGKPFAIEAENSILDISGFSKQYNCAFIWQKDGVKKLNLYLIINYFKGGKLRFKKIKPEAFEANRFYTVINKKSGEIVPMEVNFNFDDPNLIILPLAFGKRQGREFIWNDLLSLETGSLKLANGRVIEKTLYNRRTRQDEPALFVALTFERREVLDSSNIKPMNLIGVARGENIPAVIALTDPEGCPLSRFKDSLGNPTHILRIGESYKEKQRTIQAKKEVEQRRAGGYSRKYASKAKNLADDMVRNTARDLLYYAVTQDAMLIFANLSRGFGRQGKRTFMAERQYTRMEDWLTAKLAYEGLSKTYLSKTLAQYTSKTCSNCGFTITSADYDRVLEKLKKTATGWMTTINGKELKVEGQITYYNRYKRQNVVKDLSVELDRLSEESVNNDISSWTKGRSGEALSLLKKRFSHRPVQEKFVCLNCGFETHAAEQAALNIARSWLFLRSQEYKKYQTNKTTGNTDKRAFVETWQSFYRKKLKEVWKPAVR

Chain of ELXR5-ZNF10 (#5.B) (synthetic construct) (chain, as listed by the source): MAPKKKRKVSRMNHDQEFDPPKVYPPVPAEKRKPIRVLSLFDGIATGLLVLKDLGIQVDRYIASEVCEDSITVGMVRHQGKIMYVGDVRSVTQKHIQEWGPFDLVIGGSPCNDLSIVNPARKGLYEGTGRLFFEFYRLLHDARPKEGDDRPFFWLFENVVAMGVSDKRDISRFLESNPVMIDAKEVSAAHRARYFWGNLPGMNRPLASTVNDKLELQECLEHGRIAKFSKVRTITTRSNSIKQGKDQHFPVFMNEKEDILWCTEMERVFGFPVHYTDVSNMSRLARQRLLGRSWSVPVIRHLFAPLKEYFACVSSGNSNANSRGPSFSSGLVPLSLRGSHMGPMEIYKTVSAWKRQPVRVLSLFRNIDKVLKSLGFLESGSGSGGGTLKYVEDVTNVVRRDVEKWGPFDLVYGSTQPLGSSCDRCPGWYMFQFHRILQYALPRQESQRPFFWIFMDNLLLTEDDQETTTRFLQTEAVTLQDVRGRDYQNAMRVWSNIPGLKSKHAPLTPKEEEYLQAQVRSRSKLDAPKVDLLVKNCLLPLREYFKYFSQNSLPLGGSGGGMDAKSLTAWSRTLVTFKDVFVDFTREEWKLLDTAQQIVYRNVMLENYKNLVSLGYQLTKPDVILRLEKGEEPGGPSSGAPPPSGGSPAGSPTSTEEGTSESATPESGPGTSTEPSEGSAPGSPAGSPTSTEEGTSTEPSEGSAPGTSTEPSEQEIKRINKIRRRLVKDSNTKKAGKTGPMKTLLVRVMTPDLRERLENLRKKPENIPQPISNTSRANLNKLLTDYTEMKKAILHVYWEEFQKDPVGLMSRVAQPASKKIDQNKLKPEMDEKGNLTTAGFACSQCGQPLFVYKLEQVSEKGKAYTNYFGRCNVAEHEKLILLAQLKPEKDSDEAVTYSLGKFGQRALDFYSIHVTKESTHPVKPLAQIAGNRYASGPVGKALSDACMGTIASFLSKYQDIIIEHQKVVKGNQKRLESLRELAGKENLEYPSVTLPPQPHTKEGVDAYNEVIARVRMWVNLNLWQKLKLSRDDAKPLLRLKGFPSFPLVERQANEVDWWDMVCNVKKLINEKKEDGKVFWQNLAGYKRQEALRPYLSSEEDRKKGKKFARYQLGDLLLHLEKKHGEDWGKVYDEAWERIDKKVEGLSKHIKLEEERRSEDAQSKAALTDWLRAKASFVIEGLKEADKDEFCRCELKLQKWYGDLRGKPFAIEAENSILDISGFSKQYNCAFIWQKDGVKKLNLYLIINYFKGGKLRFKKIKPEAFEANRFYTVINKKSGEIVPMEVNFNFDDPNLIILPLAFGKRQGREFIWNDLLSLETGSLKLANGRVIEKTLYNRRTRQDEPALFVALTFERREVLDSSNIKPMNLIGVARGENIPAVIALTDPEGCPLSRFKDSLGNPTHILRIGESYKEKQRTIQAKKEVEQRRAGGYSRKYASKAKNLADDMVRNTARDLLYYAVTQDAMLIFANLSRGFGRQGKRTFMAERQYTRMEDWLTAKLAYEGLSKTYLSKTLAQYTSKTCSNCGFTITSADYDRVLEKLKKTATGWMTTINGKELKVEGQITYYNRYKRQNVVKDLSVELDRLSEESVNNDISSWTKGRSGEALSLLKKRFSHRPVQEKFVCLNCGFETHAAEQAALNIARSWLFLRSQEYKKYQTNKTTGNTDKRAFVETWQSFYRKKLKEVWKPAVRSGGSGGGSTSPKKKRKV
Chain of ELXR5-ZIM3 (#5.A) (synthetic construct) (chain, as listed by the source): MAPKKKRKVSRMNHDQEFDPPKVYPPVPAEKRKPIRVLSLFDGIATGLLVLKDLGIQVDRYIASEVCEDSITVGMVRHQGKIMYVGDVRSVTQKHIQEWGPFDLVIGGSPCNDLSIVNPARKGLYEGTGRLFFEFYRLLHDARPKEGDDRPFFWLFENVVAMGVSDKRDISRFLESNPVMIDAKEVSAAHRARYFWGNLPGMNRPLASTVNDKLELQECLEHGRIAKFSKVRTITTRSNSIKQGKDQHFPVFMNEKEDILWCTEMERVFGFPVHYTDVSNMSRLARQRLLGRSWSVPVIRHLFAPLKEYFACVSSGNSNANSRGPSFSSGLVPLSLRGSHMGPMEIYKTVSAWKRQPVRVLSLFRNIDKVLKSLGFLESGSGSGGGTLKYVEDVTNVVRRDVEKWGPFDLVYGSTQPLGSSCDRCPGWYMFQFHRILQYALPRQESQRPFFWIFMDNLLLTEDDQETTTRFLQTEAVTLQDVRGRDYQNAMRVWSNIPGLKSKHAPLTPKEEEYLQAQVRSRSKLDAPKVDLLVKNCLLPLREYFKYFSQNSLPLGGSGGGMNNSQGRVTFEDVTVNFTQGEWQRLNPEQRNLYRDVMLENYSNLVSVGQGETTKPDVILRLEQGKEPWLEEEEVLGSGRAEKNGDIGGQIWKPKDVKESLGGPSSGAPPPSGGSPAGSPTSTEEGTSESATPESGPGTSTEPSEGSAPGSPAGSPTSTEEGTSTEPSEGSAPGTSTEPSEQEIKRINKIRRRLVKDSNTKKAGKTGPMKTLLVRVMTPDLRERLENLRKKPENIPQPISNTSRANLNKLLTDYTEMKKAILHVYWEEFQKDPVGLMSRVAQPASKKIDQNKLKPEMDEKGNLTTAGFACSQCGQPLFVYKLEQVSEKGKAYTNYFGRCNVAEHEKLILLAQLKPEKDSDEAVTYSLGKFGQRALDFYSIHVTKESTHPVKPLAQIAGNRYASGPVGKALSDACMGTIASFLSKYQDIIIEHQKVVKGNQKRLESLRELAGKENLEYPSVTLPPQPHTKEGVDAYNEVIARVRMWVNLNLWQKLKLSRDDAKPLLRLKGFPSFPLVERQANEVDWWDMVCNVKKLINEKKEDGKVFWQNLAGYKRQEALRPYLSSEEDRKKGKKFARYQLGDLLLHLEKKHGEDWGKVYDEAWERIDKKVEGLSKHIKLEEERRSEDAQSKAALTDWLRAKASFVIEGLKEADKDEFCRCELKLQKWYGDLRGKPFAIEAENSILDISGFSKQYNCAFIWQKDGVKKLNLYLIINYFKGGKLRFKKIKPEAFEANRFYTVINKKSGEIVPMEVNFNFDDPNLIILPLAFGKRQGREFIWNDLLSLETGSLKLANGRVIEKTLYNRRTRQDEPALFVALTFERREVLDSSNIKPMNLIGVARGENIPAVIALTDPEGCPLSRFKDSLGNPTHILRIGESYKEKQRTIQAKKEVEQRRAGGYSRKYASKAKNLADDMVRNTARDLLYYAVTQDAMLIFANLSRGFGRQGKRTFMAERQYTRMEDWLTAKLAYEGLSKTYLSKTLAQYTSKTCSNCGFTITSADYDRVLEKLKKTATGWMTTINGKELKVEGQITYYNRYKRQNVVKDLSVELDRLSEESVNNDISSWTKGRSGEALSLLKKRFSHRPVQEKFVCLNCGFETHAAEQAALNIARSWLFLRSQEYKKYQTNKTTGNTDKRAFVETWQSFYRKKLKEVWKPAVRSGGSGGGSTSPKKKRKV

B1: gRNA scaffold 174 + spacer 7.37 ; B2M target 7.37 (ssRNA ; dsDNA)
RNA: ACUGGCGCUUUUAUCUGAUUACUUUGAGAGCCAUCACCAGCGACUAUGUCGUAGUGGGUAAAGCUCCCUCUUCGGAGGGAGCAUCAAAGGGCCGAGAUGUCUCGCUCCG
DNA 1: GGCCGAGATGTCTCGCTCCG
DNA 2: CGGAGCGAGACATCTCGGCC
B1 gave an activity (ELXR4-ZNF10 (#4.B)) of 55.2 % HLA-negative cells, an activity (ELXR5-ZNF10 (#5.B)) of 60.8 % HLA-negative cells and an activity (ELXR5-ZIM3 (#5.A)) of 74.9 % HLA-negative cells. For the same binder, the activity (ELXR4-ZIM3 (#4.A)) was 69 % HLA-negative cells and the activity (ELXR2-ZNF10 (#2.B)) was 36.9 % HLA-negative cells.
